# Data published in the supplement of paper PMC10724198.
# ± gives the standard deviation of the averaged measurements.
# Test system: Saccharomyces cerevisiae
# Test: protein stability index of tFT-peptide fusion (C-terminal peptide) (PSI (0-1 scale)); higher = more stable (slower turnover)
# Conditions: genetic background: wild type; temperature: 30 C
# 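Also: PSI is a weighted mean of sequencing reads over stability bins, variants kept only with over 10 reads, mCherry proximal and sfGFP distal, peptide attached via GGGS linker.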
row,Sequence,protein stability index
1,LLDGRNVPRFRK,0.792 ± 0.042
2,LLFFFTWCLCCF,0.569 ± 0.028
3,LLFRSLASMEFP,0.6934 ± 0.0062
4,LLGWRFFYLGVG,0.688 ± 0.051
5,LLHHPPPPPSQP,0.769 ± 0.011
6,LLHPLPPPSYPP,0.689 ± 0.01
7,LLHRALLFPAVM,0.734 ± 0.017
8,LLIFFFSSSCPL,0.5359 ± 0.0025
9,LLIYALPQGTHL,0.68 ± 0.048
10,LLKLSVPPSLYV,0.5722 ± 0.0011
11,LLLARDLAHPLI,0.705 ± 0.015
12,LLLFSILPFCLF,0.53 ± 0.073
13,LLLLPPPPPPPT,0.684 ± 0.046
14,LLLTVMSSPSLL,0.645 ± 0.027
15,LLNCVCSYFAWC,0.637 ± 0.014
16,LLNNTLENQNTL,0.6645 ± 0.0041
17,LLNTSPPRSVLH,0.653 ± 0.01
18,LLPFHPPPPCPP,0.733 ± 0.033
19,LLPFIPPPPCPP,0.658 ± 0.02
20,LLPLGSLSLSPP,0.7257 ± 0.0024
21,LLPLPSFSPCSL,0.7013 ± 0.0034
22,LLPLVLHQAFSP,0.729 ± 0.073
23,LLPPPPPASPAI,0.696 ± 0.01

row,Sequence,protein stability index
1,LLPPSPSSRPLF,0.723 ± 0.02
2,LLPPTSRLPRLG,0.702 ± 0.12
3,LLPSPLPPLLRL,0.6494 ± 0.0018
4,LLQFYWRPCRGY,0.699 ± 0.013
5,LLQSPRLGQEWA,0.6928 ± 0.0028
6,LLSCFGFLRVGA,0.6076 ± 0.0049
7,LLSHLPLPSSPP,0.737 ± 0.096
8,LLSPAPRSPRRP,0.725 ± 0.019
9,LLSPPFPPPAMV,0.6948 ± 0.0017
10,LLSPPPAPRPPH,0.696 ± 0.067
11,LLSSSLPVCLWS,0.733 ± 0.048
12,LLSVPSLFCQFF,0.683 ± 0.057
13,LLTAFQACPASN,0.713 ± 0.04
14,LLVCVVDREPPI,0.685 ± 0.019
15,LMGFVASGGDDM,0.786 ± 0.1
16,LNDYGLADLGII,0.731 ± 0.0076
17,LNEGSDRTKNKK,0.709 ± 0.065
18,LNHTRKDSLLTC,0.667 ± 0.014
19,LNPPPPPDPPPT,0.585 ± 0.048
20,LNSSGPGYGFPG,0.743 ± 0.05
21,LNWMVMLGHGAC,0.5729 ± 0.0014
22,LPAFHFHSPPTP,0.688 ± 0.037
23,LPAPARPPLVCS,0.605 ± 0.048

row,Sequence,protein stability index
1,LPAPPTPRPAPP,0.706 ± 0.016
2,LPFPSCYLRASL,0.779 ± 0.033
3,LPFSPLSLLAHP,0.782 ± 0.044
4,LPGCPPADRPLV,0.688 ± 0.13
5,LPHLSPPPLAQL,0.686 ± 0.033
6,LPHSPHRAAYPN,0.8 ± 0.013
7,LPHYLAFPFFMI,0.499 ± 0.08
8,LPIARLPPPPPR,0.707 ± 0.1
9,LPITTPLPPLDP,0.688 ± 0.02
10,LPLALLSPPFGS,0.707 ± 0.022
11,LPLHAPPPHRHP,0.683 ± 0.013
12,LPLPHPQPTPYP,0.756 ± 0.046
13,LPLPPLPPPSCP,0.718 ± 0.032
14,LPLSRPPLPPPL,0.786 ± 0.031
15,LPNLGWTNSSIE,0.667 ± 0.066
16,LPNPTSPSPQAA,0.693 ± 0.025
17,LPPALAPLPPPL,0.572 ± 0.021
18,LPPCGQIVSLDT,0.68 ± 0.022
19,LPPLAPSSPPRP,0.696 ± 0.033
20,LPPLLGPSPCPP,0.604 ± 0.015
21,LPPLLLPTRPLS,0.662 ± 0.12
22,LPPLPPLAHHPA,0.699 ± 0.044
23,LPPPLPLPSRHY,0.671 ± 0.06

row,Sequence,protein stability index
1,LPPPLSSPSSLR,0.7153 ± 0.0071
2,LPPPPLSPPSLV,0.734 ± 0.0078
3,LPPPPPAFLDSF,0.691 ± 0.065
4,LPPPPPPLPHPP,0.597 ± 0.083
5,LPPPPRPALSHR,0.72 ± 0.089
6,LPPPRSPPLPRL,0.802 ± 0.059
7,LPPPSPPPIPSP,0.688 ± 0.06
8,LPPPVFPLRLSL,0.703 ± 0.027
9,LPPRPGFLSSLP,0.64 ± 0.082
10,LPPRSPSPHPHR,0.68 ± 0.0078
11,LPPSPLPPLPPP,0.6942 ± 0.0012
12,LPPSRSPPPFPL,0.728 ± 0.048
13,LPPSSCPPPPTP,0.702 ± 0.068
14,LPPSSFPTPSPP,0.723 ± 0.08
15,LPPSTYPASTPS,0.674 ± 0.054
16,LPPVPRAYFSDT,0.714 ± 0.061
17,LPRHKWLPSGLG,0.686 ± 0.056
18,LPRPPPPSPPPP,0.7 ± 0.042
19,LPRTALHSPSPY,0.723 ± 0.082
20,LPRTPPPLAHGP,0.688 ± 0.041
21,LPSGLTSPPRSS,0.712 ± 0.031
22,LPSHPHDRPPQT,0.719 ± 0.019
23,LPSLDSVCLLFP,0.685 ± 0.026

row,Sequence,protein stability index
1,LPSLLIHLVSQT,0.668 ± 0.02
2,LPSPALSRSDPT,0.729 ± 0.031
3,LPSPPRHPSAPR,0.683 ± 0.022
4,LPSPRIPLTSQS,0.638 ± 0.031
5,LPSPSYPAPVPN,0.65 ± 0.074
6,LPTPSLPPLPFH,0.623 ± 0.058
7,LPTSPQLPHAPS,0.7192 ± 0.0046
8,LPTSSTRVEFSV,0.638 ± 0.045
9,LPVPLYPTPALL,0.666 ± 0.14
10,LPVPPPPPLPET,0.702 ± 0.061
11,LPYAMPGFHSTR,0.701 ± 0.037
12,LQASRHPASPST,0.701 ± 0.048
13,LQCCVAVTNYCV,0.54 ± 0.016
14,LQCRAEFQRARC,0.666 ± 0.031
15,LQFAQLLDISIT,0.696 ± 0.062
16,LQKNKIPTKKKD,0.647 ± 0.0097
17,LRARLTGRFIVG,0.669 ± 0.013
18,LRAWAAPPPHGL,0.727 ± 0.076
19,LRCFLESPRQST,0.724 ± 0.071
20,LRESPPHLPFPP,0.701 ± 0.039
21,LRFGEGILLDWG,0.723 ± 0.043
22,LRFRCGNSRILS,0.724 ± 0.044
23,LRGAWRISIEGG,0.666 ± 0.036

row,Sequence,protein stability index
1,LRGEGAGPEDVG,0.67 ± 0.029
2,LRGTEMMSTSVV,0.656 ± 0.085
3,LRGVDSALCGAR,0.693 ± 0.082
4,LRHLPRDVPSYI,0.7049 ± 0.0046
5,LRLSASRLLPPP,0.736 ± 0.015
6,LRLSSYRAPRPR,0.649 ± 0.032
7,LRPCSSLPSTPP,0.718 ± 0.049
8,LRPCVSHLHLQN,0.677 ± 0.18
9,LRPGRSKHSSQA,0.721 ± 0.044
10,LRQVGTASSLRR,0.717 ± 0.045
11,LRREQIKEAKHR,0.66 ± 0.017
12,LRRNHREPGYSK,0.684 ± 0.024
13,LRRPSPPAPPPP,0.718 ± 0.11
14,LRSAPTLFTRPY,0.677 ± 0.0091
15,LRSAYGHCLQKI,0.715 ± 0.14
16,LRSCLARGLFFG,0.7426 ± 0.0066
17,LRSLRFALFPPA,0.642 ± 0.083
18,LRVQASALHVLQ,0.667 ± 0.021
19,LRVQFFFLAGCT,0.584 ± 0.006
20,LRYGSDQMERFI,0.717 ± 0.1
21,LSAMVSYTRAPF,0.67811 ± 0.00065
22,LSARAKRTVTFL,0.593 ± 0.043
23,LSASHVMSLTNL,0.698 ± 0.028

row,Sequence,protein stability index
1,LSCQWNSDSLGV,0.644 ± 0.1
2,LSCRGVTIRYCW,0.683 ± 0.012
3,LSCSPVFFPLQP,0.69 ± 0.0096
4,LSDLDSMVMIVP,0.869 ± 0.16
5,LSDSLERVGGAF,0.701 ± 0.048
6,LSFSFSPTSPPP,0.739 ± 0.072
7,LSFWGLLSFWTP,0.594 ± 0.02
8,LSGWVLVGNWGN,0.647 ± 0.036
9,LSILSIHAHRAN,0.665 ± 0.099
10,LSLAPPPLLHHL,0.664 ± 0.02
11,LSLLKPLALCES,0.559 ± 0.032
12,LSLLPFLRPPPI,0.774 ± 0.043
13,LSLPPHSPPLHR,0.702 ± 0.04
14,LSLPQPHPPLKS,0.679 ± 0.029
15,LSMPRVHTRHRP,0.708 ± 0.014
16,LSPGLPRLLVKM,0.669 ± 0.033
17,LSPLGLGPLLPP,0.68 ± 0.048
18,LSPLRPPAPSVF,0.646 ± 0.038
19,LSPPFLLTSPLT,0.703 ± 0.046
20,LSPPLAPPPALP,0.701 ± 0.08
21,LSPPPPPPVFSP,0.727 ± 0.026
22,LSPPVLLAPPQH,0.59 ± 0.0098
